For one assay, the target named is T1, integrin α5β1 (human, UniProt P08648 42-1049; P05556 21-798).
T1 construct: whole, on cells; Native integrin on HMVEC-d; also called CD49e
Put plainly: flow cytometry on HMVEC-d; dis-Fc binding with 5-8 fold excess mAb SAM-1 (competitor) vs control mAb. As to the method:
(§1) Prior to performing binding studies, HMVEC-d were removed from culture vessels using trypsin-EDTA. The cells were washed in media containing serum and resuspended in binding medium which consisted of PBS containing 1 mM Ca2+, 1 mM Mg2+ and 0.5 mM Mn2+, 0.1% sodium azide, 10% Normal goat serum, 2% rabbit serum and 2% fetal bovine serum.
(§2) One hundred microliters of cell suspension, containing 200,000 to 500,000 HMVEC-d, were added to 12×75 mm plastic test tubes. Monoclonal antibodies specific for one of the integrins, or a control monoclonal antibody (CD29 or M15), were added to the cell suspensions at a concentration of 100 μg/ml (5-8 fold mass excess) 15 minutes prior to addition of disintegrin-Fc fusion proteins. ADAM disintegrin-Fc polypeptides and control Fc fusion polypeptides (P7.5II.Fc) were added, at various concentrations from 12.5 to 20 μg/ml, to the cell suspensions and incubated for 1 hour at 30° C. Unbound Fc polypeptides were washed away by centrifugation of cells in 2 mls of binding media. The washed cell pellets were resuspended in binding medium and then incubated at 30° C. for 30 minutes with goat anti-human Fc-specific biotinylated antibody at a concentration of 2.5 μg/ml for 30 minutes. After centrifugation and washing of the cell pellets, the cells were resuspended in binding medium and bound anti-human Fc-biotin was detected by adding streptavidin-phycoerythrin conjugate to the cell suspension at a 1:1000 dilution (1 μg/ml) and incubating at 30° C. for 30 minutes. The unbound streptavidin-phycoerythrin was washed away and the cells were resuspended in binding medium containing propidum iodide. The level of fluorescent binding (disintegrin-Fc binding) was determined by flow cytometry.
(§3) The level of binding of each ADAM disintegrin-Fc polypeptide was determined in the presence of anti-integrin specific mAb and in the presence of control mAb. Both the intensity of binding (MFI) and the percentage of cells binding were determined. Percent inhibition was calculated using the formula [1-(MFI control-MFI integrin mAb)/MFI control.

A further assay concerns the target T2, integrin αvβ3 (human, UniProt P06756 31-1048; P05106 27-788).
T2 construct: whole, on cells; Native integrin on primary human dermal microvascular endothelial cells (HMVEC-d); also called CD51/61
Put plainly: flow cytometry on HMVEC-d; dis-Fc binding with 5-8 fold excess mAb LM609 (competitor) vs control mAb. On the procedure: as §1, §2, §3
(Flow cytometry measures light scatter and fluorescence of single cells or particles in a stream.)

B1: ADAM-23dis-Fc (Fc fusion)
chain: TSCGNGYVEAGEECDCGFHVECYGLCCKKCSLSNGAHCSDGPCCNNTSCLFQPRGYECRDAVNECDITEYCTGDSGQCPPNLHKQDGYACNQNQGRCYNGECKARDNQCQYIWGTKAAGSDKFCYEKLNTEGTEKGNCGKDGDRWIQCSKHDVFCGFLLCTNLTRAPRIGQLQGEIIPTSFYHQGRVIDCSGAHVVLDDDTDVGYVEDGTPCGPSMMCLDRKCLQIQALNMSSCPLDSKGKVCSGHGVCSNEATCICDFTWAGTDCSIRDPVRNLHPPKDEGPKGPSATNRSCDKTHTCPPCPAPEAEGAPSVFLFPPKPKDTLMISRTPEVTCVVVDVSHEDPEVKFNWYVDGVEVHNAKTKPREEQYNSTYRVVSVLTVLHQDWLNGKEYKCKVSNKALPAPIEKTISKAKGQPREPQVYTLPPSRDELTKNQVSLTCLVKGFYPSDIAVEWESNGQPENNYKTTPPVLDSDGSFFLYSKLTVDKSRWQQGNVFSCSVMHEALHNHYTQKSLSLSPGK
notes: also called ADAM-23 disintegrin-Fc polypeptide
Turning to B1, in the assay with integrin α5β1, the “percent inhibition of binding” value is 49%.

B2: ADAM-15dis-Fc (Fc fusion)
chain: TSCGNMFVEPGEQCDCGFLDDCVDPCCDSLTCQLRPGAQCASDGPCCQNCQLRPSGWQCRPTRGDCDLPEFCPGDSSQCPPDVSLGDGEPCAGGQAVCMHGRCASYAQQCQSLWGPGAQPAAPLCLQTANTRGNAFGSCGRNPSGSYVSCTPRDAICGQLQCQTGRTQPLLGSIRDLLWETIDVNGTELNCSWVHLDLGSDVAQPLLTLPGTACGPGLVCIDHRCQRVDLLGAQECRSKCHGHGVCDSNRHCYCEEGWAPPDCTTQLKATSSRSCDKTHTCPPCPAPEAEGAPSVFLFPPKPKDTLMISRTPEVTCVVVDVSHEDPEVKFNWYVDGVEVHNAKTKPREEQYNSTYRVVSVLTVLHQDWLNGKEYKCKVSNKALPAPIEKTISKAKGQPREPQVYTLPPSREEMTKNQVSLTCLVKGFYPSDIAVEWESNGQPENNYKTTPPVLDSDGSFFLYSKLTVDKSRWQQGNVFSCSVMHEALHNHYTQKSLSLSPGK
notes: also called ADAM-15 disintegrin-Fc polypeptide
With B2, the “percent inhibition of binding” value with integrin αvβ3 worked out at 60%; with integrin α5β1 it was 30%.

B3: ADAM-20dis-Fc (Fc fusion)
chain: TSCGNLVVEEGEECDCGTIRQCAKDPCCLLNCTLHPGAACAFGICCKDCKFLPSGTLCRQQVGECDLPEWCNGTSHQCPDDVYVQDGISCNVNAFCYEKTCNNHDIQCKEIFGQDARSASQSCYQEINTQGNRFGHCGIVGTTYVKCWTPDIMCGRVQCENVGVIPNLIEHSTVQQFHLNDTTCWGTDYHLGMAIPDIGEVKDGTVCGPEKICIRKKCASMVHLSQACQPKTCNMRGICNNKQHCHCNHEWAPPYCKDKGYGGSADSGPPPKNNMEGLNVMGKLRGSCDKTHTCPPCPAPEAEGAPSVFLFPPKPKDTLMISRTPEVTCVVVDVSHEDPEVKFNWYVDGVEVHNAKTKPREEQYNSTYRVVSVLTVLHQDWLNGKEYKCKVSNKALPAPIEKTISKAKGQPREPQVYTLPPSRDELTKNQVSLTCLVKGFYPSDIAVEWESNGQPENNYKTTPPVLDSDGSFFLYSKLTVDKSRWQQGNVFSCSVMHEALHNHYTQKSLSLSPGK
notes: also called ADAM-20 disintegrin-Fc polypeptide
On to B3, for which the “percent inhibition of binding” value in the assay with integrin αvβ3 is 58%.

B4: ADAM-22dis-Fc (Fc fusion)
chain: TSCGNGFIETGEECDCGTPAECVLEGAECCKKCTLTQDSQCSDGLCCKKCKFQPMGTVCREAVNDCDIRETCSGNSSQCAPNIHKMDGYSCDGVQGICFGGRCKTRDRQCKYIWGQKVTASDKYCYEKLNIEGTEKGNCGKDKDTWIQCNKRDVLCGYLLCTNIGNIPRLGELDGEITSTLVVQQGRTLNCSGGHVKLEEDVDLGYVEDGTPCGPQMMCLEHRCLPVASFNFSTCLSSKEGTICSGNGVCSNELKCVCNRHWIGSDCNTYFPHNDDAKTGITLSGNGVAGTNGSCDKTHTCPPCPAPEAEGAPSVFLFPPKPKDTLMISRTPEVTCVVVDVSHEDPEVKFNWYVDGVEVHNAKTKPREEQYNSTYRVVSVLTVLHQDWLNGKEYKCKVSNKALPAPIEKTISKAKGQPREPQVYTLPPSRDELTKNQVSLTCLVKGFYPSDIAVEWESNGQPENNYKTTPPVLDSDGSFFLYSKLTVDKSRWQQGNVFSCSVMHEALHNHYTQKSLSLSPGK
notes: also called ADAM-22 disintegrin-Fc polypeptide
B4: the “percent inhibition of binding” value turned out to be 42% with integrin αvβ3 and 36% in the assay with integrin α5β1.

B5: ADAM-21dis-Fc (Fc fusion)
chain: TSCGNGVVEREEQCDCGSVQQCEQDACCLLNCTLRPGAACAFGLCCKDCKFMPSGELCRQEVNECDLPEWCNGTSHQCPEDRYVQDGIPCSDSAYCYQKRCNNHDQHCREIFGKDAKSASQNCYKEINSQGNRFGHCGINGTTYLKCHISDVFCGRVQCENVRDIPLLQDHFTLQHTHINGVTCWGIDYHLRMNISDIGEVKDGTVCGPGKICIHKKCVSLSVLSHVCLPETCNMKGICNNKHHCHCGYGWSPPYCQHRGYGGSIDSGPASAKRSCDKTHTCPPCPAPEAEGAPSVFLFPPKPKDTLMISRTPEVTCVVVDVSHEDPEVKFNWYVDGVEVHNAKTKPREEQYNSTYRVVSVLTVLHQDWLNGKEYKCKVSNKALPAPIEKTISKAKGQPREPQVYTLPPSRDELTKNQVSLTCLVKGFYPSDIAVEWESNGQPENNYKTTPPVLDSDGSFFLYSKLTVDKSRWQQGNVFSCSVMHEALHNHYTQKSLSLSPGK
notes: also called ADAM-21 disintegrin-Fc polypeptide
Consider B5, for which the “percent inhibition of binding” value in the assay with integrin α5β1 is 54%.

B6: ADAM-17dis-Fc (Fc fusion)
chain: TSCGNSRVDEGEECDPGIMYLNNDTCCNSDCTLKEGVQCSDRNSPCCKNCQFETAQKKCQEAINATCKGVSYCTGNSSECPPPGNAEDDTVCLDLGKCKDGKCIPFCEREQQLESCACNETDNSCKVCCRDLSGRCVPYVDAEQKNLFLRKGKPCTVGFCDMNGKCEKRVQDVIERFWDFIDQLSINTFGKFLADNRSCDKTHTCPPCPAPEAEGAPSVFLFPPKPKDTLMISRTPEVTCVVVDVSHEDPEVKFNWYVDGVEVHNAKTKPREEQYNSTYRVVSVLTVLHQDWLNGKEYKCKVSNKALPAPIEKTISKAKGQPREPQVYTLPPSRDELTKNQVSLTCLVKGFYPSDIAVEWESNGQPENNYKTTPPVLDSDGSFFLYSKLTVDKSRWQQGNVFSCSVMHEALHNHYTQKSLSLSPGK
notes: also called ADAM-17 disintegrin-Fc polypeptide
For B6, in the assay with integrin αvβ3, the “percent inhibition of binding” value turned out to be 50%.

The record behind these values is patent US20020042368A1 (IMMUNEX, published 2002).
